These results are taken from patent US20230046744A1 (APO T B V, published 2023).

What is called IC50 is the midpoint of a concentration-inhibition curve. A high value points to weaker potency.

The target in test [1] is T1, HLA-A*0201/… with alanine at peptide position 5, on peptide-pulsed JY cells (human).
T1 construct: built from the parent peptide and the stated change
The experiment in a line: flow cytometry, peptide-pulsed JY cells.
Description: (§1) Briefly, 200′000 JY cells were incubated (pulsed) overnight under serum free conditions with 100 μg/ml peptide variants. The amino acids of the used peptides were sequentially substituted for an alanine (information regarding sequences of peptides is summarized FIG. 3B).

Test [2] has as its target T2, HLA-A*0201/… with alanine at peptide position 6, on peptide-pulsed JY cells (human).
T2 construct: built from the parent peptide and the stated change
The experiment in a line: flow cytometry, peptide-pulsed JY cells.
Description: as §1

The target of test [3] is T3, HLA-A*0201/… with alanine at peptide position 4, on peptide-pulsed JY cells (human).
T3 construct: built from the parent peptide and the stated change
Put plainly: flow cytometry, peptide-pulsed JY cells. (Flow cytometry measures light scatter and fluorescence of single cells or particles in a stream.)
Description: as §1

Test [4] addresses T4, HLA-A*0201/… with alanine at peptide position 3, on peptide-pulsed JY cells (human).
T4 construct: built from the parent peptide and the stated change
Put plainly: flow cytometry, peptide-pulsed JY cells.
Description: as §1

Test [5] addresses T5, CD3 molecule expressed on the surface of T cells (human, UniProt P07766 23-207).
T5 construct: whole, on cells; CD3 complex on cells; also called CD3 on PBMCs; CD3 on surface of immune effector cells
Put plainly: flow cytometry on PBMCs.

The target of test [6] is T6, biotinylated HLA-A*2402/… complex (human, biotinylated complex, site not stated).
T6 construct: recombinant complex on streptavidin plates
The experiment in a line: ELISA, biotinylated complexes on streptavidin plates, dilution series of the antibody. On the technique in general: ELISA stands for enzyme-linked immunosorbent assay.

Test [7] deals with T7, biotinylated HLA-A*2402/… complex (human, biotinylated complex, site not stated).
T7 construct: control complex on streptavidin plates
Put plainly: ELISA, biotinylated complexes on streptavidin plates.

Test [8] addresses HLA-A*2402/… complex on CHO-S cells (human). The experiment in a line: flow cytometry on CHO-S transfectants.
Description: Non transfected CHO-S cells were used as a control. For the staining 200′000 cells were suspended in 100 μl PBS containing 0.1% BSA. […] After 30 minutes incubation at 40° C. the cells were washed two times with 200 μl PBS containing 0.1% BSA. […] After the incubation, cells were washed again two times with 200 μl PBS containing 0.1% BSA.

T5 sequence (P07766 23-207): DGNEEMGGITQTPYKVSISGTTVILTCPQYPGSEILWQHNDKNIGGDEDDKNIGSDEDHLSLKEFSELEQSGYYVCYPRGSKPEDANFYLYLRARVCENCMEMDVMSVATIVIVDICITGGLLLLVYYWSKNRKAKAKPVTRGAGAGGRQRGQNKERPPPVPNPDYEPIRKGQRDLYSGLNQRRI

B1: 4A6 IgG (antibody, V domains shown)
VH: EVQLVQSGAEVKKPGSSVKVSCKASGGTFSSYAISWVRQAPGQGLEWMGGIIPIFGTADYAQKFQGRATITADESTSTAYMELSSLRSEDTAVYYCARDYDFWSGYYAGDVWGQGTTVTVSS
VL: QSALTQPASVSGSPGQSITISCTGTSSDVGGYNYVSWYQQHPGKAPKLMIYDVSNRPSGVSNRFSGSKSGNTASLTISGLQAEDEADYYCSSYTSSSTRVFGGGTKLTVL
notes: IgG detected with anti-human IgG; also called 4A6 antibody
B1: the binding result in test [1], in test [2], in test [3] and in test [4] was “no binding” in each case.

B2: 4A6_SC_FV (scFv, V domains shown)
VH: EVQLVQSGAEVKKPGSSVKVSCKASGGTFSSYAISWVRQAPGQGLEWMGGIIPIFGTADYAQKFQGRATITADESTSTAYMELSSLRSEDTAVYYCARDYDFWSGYYAGDVWGQGTTVTVSS
VL: QSALTQPASVSGSPGQSITISCTGTSSDVGGYNYVSWYQQHPGKAPKLMIYDVSNRPSGVSNRFSGSKSGNTASLTISGLQAEDEADYYCSSYTSSSTRVFGGGTKLTVL
notes: scFv of 4A6; VH and VL are those named for 4A6; also called monospecific antibody fragment
For the molecule B2, the binding result in test [5] was “no binding (tested: 50 ng/ml)”.

B3: murine 9A7 IgG (antibody, V domains shown)
VH: QVQLQQPGAELVKPGASVKLSCKASGYTFTSFWMHWVKQRPGQGLEWIGEIDSSDSYTNYNQKFKGKATLTVDKSSSTAYMQLSSLTSDDSAVYYCARRVGRGYFDYWGQGTTLTVSS
VL: DIVMTQSHKFMSTSVGDRVSITCKASQDVRTAVVWYQQKPGQSPKLLIYWASTRHTGVPDRFTGSGSGTDYILTISSVQAEDLALYYCQQYDTTPWTFGGGTKVEIK
notes: mouse IgG from hybridoma; also called mouse 9A7 IgG; 9A7 murine antibody
In the case of B3, the IC50 in test [6] is 0.037 nM. Further, the binding result in test [7] is “no binding (tested: dilution series starting at 100 nM)”; in test [8], “no binding (tested: dilution series starting at 222 nM)”.
